The values below come from patent publication US20250306026A1 (Dana-Farber, published 2025).

Bridge positions count the residues as written; N and C are the ends. Square brackets hold non-standard residues; d marks the D form. Ends that are not written are not given here. * marks the point of attachment. Biotin = O=C1N[C@H]2[C@H](CS[C@H]2CCCCC(=O)*)N1; S5 = C=CCCC[C@](C)(N)C(=O)O

One data set has as its target T1, MCAD (mouse, UniProt P45952 26-421).
T1 sequence (looked up): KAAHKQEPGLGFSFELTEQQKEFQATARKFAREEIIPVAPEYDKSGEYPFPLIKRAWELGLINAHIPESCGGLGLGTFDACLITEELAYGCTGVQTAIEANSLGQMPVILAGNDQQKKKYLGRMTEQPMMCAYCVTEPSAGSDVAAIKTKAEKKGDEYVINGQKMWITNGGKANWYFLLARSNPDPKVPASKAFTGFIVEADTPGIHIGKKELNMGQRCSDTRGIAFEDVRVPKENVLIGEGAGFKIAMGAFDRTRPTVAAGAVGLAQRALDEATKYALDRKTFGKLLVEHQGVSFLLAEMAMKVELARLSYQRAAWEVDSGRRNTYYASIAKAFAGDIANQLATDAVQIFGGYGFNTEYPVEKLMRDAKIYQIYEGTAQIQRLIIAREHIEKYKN
Description: streptavidin pull-down with biotinylated SAHB from cellular lysate; western blot for MCAD. From the text: (§1) To validate the MS result, the pulldowns were repeated and eluates run on a gel for anti-VLCAD Western blot analysis. VLCAD was detected in the MCL-1 SAHBD pulldown eluate, confirming the MS results. […] All peptides faithfully recapitulated native BH3-binding propensities for endogenous MCL-1 protein (FIG. 8). The eluates were then probed for the other members of the acyl-CoA dehydrogenase family that manifest shorter fatty acid substrate specificities. MCL-1 SAHBD was able to pull down VLCAD, but not MCAD or SCAD (FIG. 9). Because the traditional MCL-1 staple location differs from that of the BIM, BID, and BAD SAHBs, it was important to confirm that the observed VLCAD binding specificity was due to BH3 sequence selectivity, not staple position. A BIM SAHB with the traditional MCL-1 staple (BIM SAHBF), and a MCL-1 stapled peptide with the traditional BIM staple (MCL-1 SAHBA), were generated. […]
(§2) Wild-type MEFs were trypsinized, washed once with cold PBS, and lysed on ice with NP-40 lysis buffer (50 mM Tris, pH 7.4, 150 mM NaCl, 0.5% (v/v) NP-40, complete protease inhibitor pellet (Roche)) using 1 ml of lysis buffer for every 10 million cells lysed. Cellular debris was pelleted at 14,000 g for 10 min at 4° C., and the supernatant was quantified using the BCA Protein Assay Kit (Thermo Fisher Scientific). […]

Another data set addresses T2, SCAD (mouse, UniProt Q07417 25-412).
T2 sequence (looked up): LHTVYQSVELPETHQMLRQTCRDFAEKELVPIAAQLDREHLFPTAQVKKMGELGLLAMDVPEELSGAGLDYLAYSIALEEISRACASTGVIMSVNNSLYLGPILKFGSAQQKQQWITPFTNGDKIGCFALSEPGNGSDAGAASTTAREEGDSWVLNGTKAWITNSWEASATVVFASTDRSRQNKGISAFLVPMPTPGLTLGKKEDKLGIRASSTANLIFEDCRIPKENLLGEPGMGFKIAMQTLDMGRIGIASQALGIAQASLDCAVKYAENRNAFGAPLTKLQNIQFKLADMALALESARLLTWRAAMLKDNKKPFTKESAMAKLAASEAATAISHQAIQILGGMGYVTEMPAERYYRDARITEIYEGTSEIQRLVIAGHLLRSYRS
Description: streptavidin pull-down with biotinylated SAHB from cellular lysate; western blot for SCAD.
Description: as §1, §2

Data set [1] concerns the target recombinant VLCAD (mature human VLCAD lacking its cleavable leader sequence, aa 40-655, 10x His-tagged) (human) (UniProt P49748). Description: biolayer interferometry; Biotin-PEG SAHB on streptavidin sensors, VLCAD in solution at the plotted concentrations. For orientation: In BLI a coated tip is dipped into the sample, and binding shifts an interference pattern.
The target in the next data set is MCL-1ΔNΔC (UniProt Q07820). Description: biolayer interferometry; Biotin-PEG SAHB on streptavidin sensors, MCL-1ΔNΔC in solution at the plotted concentrations.
Data set [2] addresses T3, native VLCAD (Very Long Chain Acyl CoA Dehydrogenase) from mouse embryonic fibroblast lysates (mouse, UniProt P50544 42-656).
T3 construct: also called endogenous VLCAD of mouse liver mitochondria
T3 sequence (looked up): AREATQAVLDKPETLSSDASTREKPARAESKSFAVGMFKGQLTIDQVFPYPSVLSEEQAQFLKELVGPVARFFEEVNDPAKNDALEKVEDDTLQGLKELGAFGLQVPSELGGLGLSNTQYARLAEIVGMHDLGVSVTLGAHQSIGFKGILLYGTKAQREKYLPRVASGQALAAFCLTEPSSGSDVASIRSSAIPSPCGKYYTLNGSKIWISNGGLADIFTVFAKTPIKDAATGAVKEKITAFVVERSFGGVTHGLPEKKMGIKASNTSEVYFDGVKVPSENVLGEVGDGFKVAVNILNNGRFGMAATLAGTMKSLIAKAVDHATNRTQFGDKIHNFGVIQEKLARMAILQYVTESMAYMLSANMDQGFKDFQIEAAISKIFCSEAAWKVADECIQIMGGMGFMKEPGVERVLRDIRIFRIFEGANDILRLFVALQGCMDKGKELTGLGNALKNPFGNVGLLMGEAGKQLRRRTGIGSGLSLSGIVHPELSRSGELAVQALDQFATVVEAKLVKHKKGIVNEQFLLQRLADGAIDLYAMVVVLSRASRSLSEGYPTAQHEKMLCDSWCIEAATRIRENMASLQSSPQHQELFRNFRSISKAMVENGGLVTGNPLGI
Nature of the data set: streptavidin pull-down with biotinylated SAHB from MEF lysate; western blot for VLCAD, densitometry ratio mutant/WT. As for the experimental part:
Wild-type MEFs were trypsinized, washed once with cold PBS, and lysed on ice with NP-40 lysis buffer (50 mM Tris, pH 7.4, 150 mM NaCl, 0.5% (v/v) NP-40, complete protease inhibitor pellet (Roche)) using 1 ml of lysis buffer for every 10 million cells lysed. Cellular debris was pelleted at 14,000 g for 10 min at 4° C., and the supernatant was quantified using the BCA Protein Assay Kit (Thermo Fisher Scientific). 2 mg of lysate per pulldown were then exposed to 50 μL of pre-equilibrated High Capacity Streptavidin Agarose beads (Thermo Fisher Scientific). […] The beads were then pelleted and washed with NP-40 lysis buffer three times before eluting the protein sample from the beads by heating at 70° C. for 10 min in SDS loading buffer. Samples were then subjected to electrophoresis and either Western analysis or Coomassie stain (SimplyBlue Safe Stain, Thermo Fisher Scientific). The antibodies used for Western analysis were the following: MCL-1 (Rockland 600-401-394; 1:1000 in 3% BSA), VLCAD (Thermo Fisher Scientific PA5-29959; 1:1000 in 1% milk+0.1% Tween-20), MCAD (Thermo Fisher Scientific PA5-27201; 1:1000 in 3% BSA), and SCAD (Abcam ab154823; 1:1000 in 3% BSA). Coomassie stained gels were then processed for proteomics analysis (see below). Biotinylated SAHB pulldowns of recombinant protein were performed as above incubating 5 nmol of SAHB with 10 pmol of rVLCAD in 500 μL total volume. […]
A general note: Immunoblotting shows a protein as a band on a membrane.

For data set [3], the target named is T3, native VLCAD (Very Long Chain Acyl CoA …). Nature of the data set: DSS chemical crosslinking of intact mouse liver mitochondria, Western (FIG. 32). From the text:
To investigate the native interaction between VLCAD and MCL-1, intact mitochondria were isolated from mouse livers and exposed to the chemical crosslinker DSS. Vehicle or DSS-treated mitochondria were then lysed and the resultant lysate run on a reducing/denaturing gel.

For data set [4], the target named is recombinant VLCAD (mature human VLCAD lacking its cleavable leader sequence, aa 40-655, 10x His-tagged) (human) (UniProt P49748). Description: ITC, 200 µM Btn-peptide injected into 15 µM recombinant VLCAD, 25 °C, single binding site model. For orientation: Isothermal titration calorimetry measures the heat released or taken up as one component is titrated into another.

Another data set has as its target T4, MCL-1 SAHBD.
T4 chain: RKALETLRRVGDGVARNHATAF

Data set [5] has as its target MCL-1 SAHBs that do not bind VLCAD.

Sequence of MCL-1ΔNΔC (Q07820 172-320, stated change not applied): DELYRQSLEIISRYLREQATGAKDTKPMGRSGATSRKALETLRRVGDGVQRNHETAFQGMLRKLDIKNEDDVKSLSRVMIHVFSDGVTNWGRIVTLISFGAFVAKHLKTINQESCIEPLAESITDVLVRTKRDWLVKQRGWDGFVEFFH

B1: MCL-1 SAHBD (peptide)
peptide: RKALETLRRVGDGV[S5]RNH[S5]TAF
modifications: staple 15-19; also: derivatised forms: N-terminal biotin, Btn-PEG, fluorinated analog
notes: One entry for all derivatised forms (biotin, Btn-PEG, fluorinated, underivatised); the form used is named under assay in each row; also called Btn-MCL-1 SAHBD; Biotin-PEG-MCL-1 SAHBD
As usually defined, the EC50 (read off the curve) is the concentration needed to bring the measured effect to its halfway point. In the case of B1, the binding result in the data set with MCAD and in the data set with SCAD was “no binding” throughout. The EC50 (read off the curve) in data set [1] turned out to be 3000 nM; in the data set with MCL-1ΔNΔC, 200 nM.

B2: MCL-1 SAHBD H224A (peptide)
peptide: RKALETLRRVGDGVARNAATAF
modifications: staple (positions not given here); not fully specified (residues 15, 19, bridges); also: biotinylated, site not given here
notes: MCL-1 numbering
Turning to B2, the binding result in data set [2] was “no binding”.

B3: endogenous MCL-1 protein from mouse embryonic fibroblasts (other, UniProt P97287 1-331, looked up)
chain: MFGLRRNAVIGLNLYCGGASLGAGGGSPAGARLVAEEAKARREGGGEAALLPGARVVARPPPVGAEDPDVTASAERRLHKSPGLLAVPPEEMAASAAAAIVSPEEELDGCEPEAIGKRPAVLPLLERVSEAAKSSGADGSLPSTPPPPEEEEDDLYRQSLEIISRYLREQATGSKDSKPLGEAGAAGRRALETLRRVGDGVQRNHETAFQGMLRKLDIKNEGDVKSFSRVMVHVFKDGVTNWGRIVTLISFGAFVAKHLKSVNQESFIEPLAETITDVLVRTKRDWLVKQRGWDGFVEFFHVQDLEGGIRNVLLAFAGVAGVGAGLAYLIR
notes: also called native MCL-1; endogenous/native MCL-1
B3: the binding result in data set [3] is “binds”.

B4: MCL-1 SAHBD V220A (peptide)
peptide: Biotin-RKALETLRRVGDGAARNH[S5]TAF
modifications: staple (positions not given here); not fully specified (residue 15, bridges); also: second staple residue not placed
Broadly, the Kd is the free concentration of one partner at which half of the binding sites on the other are occupied at equilibrium, for simple one-to-one binding. As to B4, the Kd in data set [4] turned out to be 1700 nM.

B5: recombinant VLCAD (mature human VLCAD lacking its cleavable leader sequence, aa 40-655, 10x His-tagged) (protein)
chain: YAGGAAQLALDKSDSHPSDALTRKKPAKAESKSFAVGMFKGQLTTDQVFPYPSVLNEEQTQFLKELVEPVSRFFEEVNDPAKNDALEMVEETTWQGLKELGAFGLQVPSELGGVGLCNTQYARLVEIVGMHDLGVGITLGAHQSIGFKGILLFGTKAQKEKYLPKLASGETVAAFCLTEPSSGSDAASIRTSAVPSPCGKYYTLNGSKLWISNGGLADIFTVFAKTPVTDPATGAVKEKITAFVVERGFGGITHGPPEKKMGIKASNTAEVFFDGVRVPSENVLGEVGSGFKVAMHILNNGRFGMAAALAGTMRGIIAKAVDHATNRTQFGEKIHNFGLIQEKLARMVMLQYVTESMAYMVSANMDQGATDFQIEAAISKIFGSEAAWKVTDECIQIMGGMGFMKEPGVERVLRDLRIFRIFEGTNDILRLFVALQGCMDKGKELSGLGSALKNPFGNAGLLLGEAGKQLRRRAGLGSGLSLSGLVHPELSRSGELAVRALEQFATVVEAKLIKHKKGIVNEQFLLQRLADGAIDLYAMVVVLSRASRSLSEGHPTAQHEKMLCDTWCIEAAARIREGMAALQSDPWQQELYRNFKSISKALVERGGVVTSNPLGF
As for B5, the “VLCAD enzymatic activity (reduction of ferrocenium hexafluorophosphate with palmitoyl-CoA as substrate)” value in the data set with MCL-1 SAHBD was “Pre-incubation of VLCAD with MCL-1 SAHBD caused a decrease in enzymatic activity”; in [5], “an effect not observed when MCL-1 SAHBs that do not bind VLCAD were added”.
